Laboratory results: article PMC10906455, “Disruption of CFAP418 interaction with lipids causes widespread abnormal membrane-associated cellular processes in retinal degenerations” (JCI Insight, 2024)

Target: mCherry-RAB28 WT (UniProt Q99KL7 1-221)
Experiment: co-IP; HEK293 cells cotransfected with FLAG-CFAP418 and mCherry-RAB28 WT, T26N, Q72L or mCherry; mCherry proteins 'pulled down', FLAG-CFAP418 seen only in the overexposed immunoblot
Settings: partners not purified

B1: FLAG-CFAP418 (natural protein)
chain: MAKDLDELLDEVETKFCRLDPLRLDLGERPKGDGGGGSHSGDRNGAQEKETLRSTETFKKEDDLDSLINEIFEEPDFDRKSFQKFKSKSSSNTCVRAPMQGVSKSCSPVYLSGSAIPCGIGTNTSQRACDRLRCVACDFRIVSYNDYMWDKSCDYLFFRNNMPEFHKLKTKLIEKKGARAYACQCSWRTVEELTDLQTDHQLRWVCGKH
notes: CFAP418; source: HEK293, cotransfected, in lysate
fraction of CFAP418 pulled down: ~0.1%
